Values quoted from earlier work as cited in PMC6277024.

Target: WRESAI hexapeptide

Tip-1 PDZ (from UniProt O14907)
Kd: 0.01 µM
